Laboratory results: patent US20220332804A1 (CSL INNOVATION, published 2022)

Experiments:
Experiment in all cases: SPR, mAb captured, C2 mutant analyte;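 further: Anti-C2 mAbs captured on goat anti-human IgG Biacore CM5 chips, alanine or serine C2 surface mutants flowed over at 37 °C, double-referenced sensorgrams fitted to a 1:1 binding model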
[1] = biological target: T1, human C2 E433A (human, UniProt P06681 21-752)
T1 sequence: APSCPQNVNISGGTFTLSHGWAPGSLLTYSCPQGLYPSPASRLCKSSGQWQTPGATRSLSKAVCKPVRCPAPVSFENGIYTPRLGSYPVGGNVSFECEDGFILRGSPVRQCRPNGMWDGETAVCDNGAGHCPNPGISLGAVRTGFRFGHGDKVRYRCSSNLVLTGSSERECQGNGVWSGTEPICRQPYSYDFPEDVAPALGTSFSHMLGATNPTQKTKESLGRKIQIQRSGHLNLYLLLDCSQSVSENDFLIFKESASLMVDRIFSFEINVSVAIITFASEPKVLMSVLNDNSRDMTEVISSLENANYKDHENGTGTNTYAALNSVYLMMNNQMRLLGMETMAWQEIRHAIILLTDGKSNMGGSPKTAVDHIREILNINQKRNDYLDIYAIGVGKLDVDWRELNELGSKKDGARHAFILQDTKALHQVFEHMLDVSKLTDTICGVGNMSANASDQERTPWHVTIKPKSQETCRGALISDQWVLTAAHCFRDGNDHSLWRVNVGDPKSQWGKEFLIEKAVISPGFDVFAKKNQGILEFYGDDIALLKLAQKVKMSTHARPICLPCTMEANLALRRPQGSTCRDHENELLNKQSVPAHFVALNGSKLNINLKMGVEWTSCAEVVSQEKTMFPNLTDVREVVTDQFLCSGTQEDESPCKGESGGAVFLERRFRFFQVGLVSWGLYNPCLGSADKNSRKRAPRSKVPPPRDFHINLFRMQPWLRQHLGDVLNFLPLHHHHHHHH

[2] = biological target: T2, human C2 D417A (human, UniProt P06681 21-752)
T2 sequence: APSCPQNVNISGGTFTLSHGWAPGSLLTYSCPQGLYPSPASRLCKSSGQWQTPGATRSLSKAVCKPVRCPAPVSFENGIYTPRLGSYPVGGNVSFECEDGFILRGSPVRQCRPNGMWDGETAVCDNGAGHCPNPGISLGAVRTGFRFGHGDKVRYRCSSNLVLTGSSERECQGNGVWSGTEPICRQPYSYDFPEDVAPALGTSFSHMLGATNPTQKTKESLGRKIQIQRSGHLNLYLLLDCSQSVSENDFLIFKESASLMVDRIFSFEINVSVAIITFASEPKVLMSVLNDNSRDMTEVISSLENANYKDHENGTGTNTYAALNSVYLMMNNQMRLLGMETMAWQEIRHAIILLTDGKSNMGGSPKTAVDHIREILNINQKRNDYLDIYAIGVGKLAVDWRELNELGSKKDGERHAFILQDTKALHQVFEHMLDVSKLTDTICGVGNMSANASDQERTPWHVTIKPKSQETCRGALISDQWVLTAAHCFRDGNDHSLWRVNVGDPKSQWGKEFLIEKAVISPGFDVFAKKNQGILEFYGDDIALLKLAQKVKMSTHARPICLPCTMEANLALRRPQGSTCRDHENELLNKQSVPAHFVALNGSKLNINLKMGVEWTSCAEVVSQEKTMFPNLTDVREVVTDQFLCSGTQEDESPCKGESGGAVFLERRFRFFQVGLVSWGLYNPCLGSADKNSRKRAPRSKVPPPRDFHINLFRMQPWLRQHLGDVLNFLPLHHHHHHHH

[3] = biological target: T3, human C2 M452A (human, UniProt P06681 21-752)
T3 sequence: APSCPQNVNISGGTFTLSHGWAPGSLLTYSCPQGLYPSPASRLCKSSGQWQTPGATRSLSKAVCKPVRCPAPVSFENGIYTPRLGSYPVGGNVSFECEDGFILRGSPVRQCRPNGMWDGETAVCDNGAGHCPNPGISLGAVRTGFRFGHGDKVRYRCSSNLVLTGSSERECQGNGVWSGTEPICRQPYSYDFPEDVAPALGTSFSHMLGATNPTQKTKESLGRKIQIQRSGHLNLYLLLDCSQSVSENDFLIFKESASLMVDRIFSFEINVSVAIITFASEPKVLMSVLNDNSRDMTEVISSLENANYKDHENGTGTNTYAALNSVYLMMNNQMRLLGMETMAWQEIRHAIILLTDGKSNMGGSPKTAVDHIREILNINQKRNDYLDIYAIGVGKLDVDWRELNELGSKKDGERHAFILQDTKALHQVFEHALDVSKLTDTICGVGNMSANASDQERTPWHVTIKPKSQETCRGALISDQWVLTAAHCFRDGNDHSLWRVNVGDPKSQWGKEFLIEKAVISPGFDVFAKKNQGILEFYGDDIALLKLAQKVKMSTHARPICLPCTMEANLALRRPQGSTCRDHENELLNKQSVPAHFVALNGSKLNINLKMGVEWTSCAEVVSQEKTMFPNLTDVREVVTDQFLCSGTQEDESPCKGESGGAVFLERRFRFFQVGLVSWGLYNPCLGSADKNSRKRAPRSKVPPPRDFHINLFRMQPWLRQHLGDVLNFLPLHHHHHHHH

[4] = biological target: T4, human C2 H331A (human, UniProt P06681 21-752)
T4 sequence: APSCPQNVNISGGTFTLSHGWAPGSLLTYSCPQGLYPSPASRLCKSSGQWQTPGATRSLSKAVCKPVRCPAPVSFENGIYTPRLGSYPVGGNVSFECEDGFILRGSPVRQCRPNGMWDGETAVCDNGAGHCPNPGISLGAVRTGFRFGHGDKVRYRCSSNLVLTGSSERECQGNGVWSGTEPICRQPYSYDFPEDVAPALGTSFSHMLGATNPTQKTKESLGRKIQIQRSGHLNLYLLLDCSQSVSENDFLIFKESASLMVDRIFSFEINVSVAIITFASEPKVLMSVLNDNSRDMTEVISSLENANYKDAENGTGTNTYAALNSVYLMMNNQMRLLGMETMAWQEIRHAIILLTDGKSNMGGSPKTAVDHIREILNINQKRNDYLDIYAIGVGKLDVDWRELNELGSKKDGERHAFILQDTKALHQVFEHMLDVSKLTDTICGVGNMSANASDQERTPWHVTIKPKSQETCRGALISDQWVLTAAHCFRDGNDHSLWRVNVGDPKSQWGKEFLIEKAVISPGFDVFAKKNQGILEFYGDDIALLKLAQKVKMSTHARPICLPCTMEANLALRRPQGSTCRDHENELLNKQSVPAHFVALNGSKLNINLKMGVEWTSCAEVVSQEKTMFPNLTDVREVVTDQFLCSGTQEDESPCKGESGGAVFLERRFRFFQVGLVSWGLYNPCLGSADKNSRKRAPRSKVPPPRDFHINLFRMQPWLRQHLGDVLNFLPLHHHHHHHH

B1: RF16-214 (antibody, V domains shown)
VH: EVQLLESGGGLVQPGGSLRLSCAASGFTFSWYQMMWVRQAPGKGLEWVSRIYPSGGGTAYADSVKGRFTISRDNSKNTLYLQMNSLRAEDTAVYYCARDAGYGDNWGQGTLVTVSS
VL: QSALTQPPSVSVSPGQTASITCSGDKLGEKYASWYQQKAGQSPVMVIYQDRKRPSGIPERFSGSNSGNTATLTISGTQAMDEADYYCQAWDTRAVVFGGGTKLTVLG
- Kd [1]: 16.4 nM
- Kd [2]: 56.4 nM
- Kd [3]: 21.3 nM
- binding result [4]: no binding
